Laboratory results taken from publication PMC9798103.
pKd: −log10 of the molar value.

Biological target: F-actin (polymerised from Ca2+-ATP G-actin of rabbit skeletal muscle) (rabbit) (UniProt P68135)
Experiment: co-sedimentation

- pKd: 4.85
Substance: N-terminal half of RHGF-1 without the PDZ domain (RHGF-1-N-ΔPDZ) (domain or fragment)
